# Laboratory results reported in US8163700B2, “Inhibitors of myelin-associated glycoprotein (MAG) activity for regulating neural growth and regeneration” (Research Foundation of City University of New York, priority 2002, dated 2012).
# Assays:
# [1] = system: cerebellar neurons on CHO cells expressing MAG; test: Neurite outgrowth on MAG-expressing CHO cells in the presence of MAG peptides (FIGS. 4 and 5); assay type: cell-based; conditions: for attenuation of inhibition of neurite outgrowth by MAG: peptide 20 μM, 18 hours, FIG. 5
# Protocol: FIG. 4 Inhibition of neurite outgrowth from cerebellar neurons by MAG; peptides Cerebellar neurons were isolated (Example 1) and grown overnight on a monolayer of control-transfected CHO cells (not shown) or CHO cells expressing MAG in the absence (striped bar) or the presence (grey bars) of MAG peptides (15 μM) derived from MAG Ig-like domain 4 or 5. Neurons were stained for GAP-43 antigen and neurite length was measured. Results are shown as number of neurons in each treatment having neurites longer than two times the length of the cell body.
# FIG. 5 Inhibition of neurite outgrowth from cerebellar neurons by MAG peptides Cerebellar neurons were isolated (Example 1) and grown for 18 hrs on a monolayer of control-transfected CHO cells (R2) or CHO cells expressing MAG in the absence of a peptide (MAG) or in the presence of a peptide derived from sialoadhesin Ig-like domain 5 (non-MAG “control peptide”) or a MAG peptide (M433 or M462 at 20 μM) derived from MAG Ig-like domain 5. Neurons were stained for GAP-43 antigen and neurite length was measured and the average length was calculated for 180-200 neurons (+/−SEM).
# Confluent monolayers of control, MAG-, truncated MAG- or chimeric MAG-Sn-expressing CHO cells were established over a 24-hour (h) period in individual chambers of an 8-well tissue culture slide (Lab-Tek). Co-cultures were established as described previously (Doherty et al., Nature, 343, pp. 464-66 (1990); Neuron, 5, pp. 209-19 (1990); Mukhopadhyay et al., Neuron, 13, pp. 757-67 (1994)) by adding approximately 5000 cerebellar neurons to the CHO monolayers. Culture medium was SATO containing 2% FCS. After periods of time as indicated, the co-cultures were fixed for 30 minutes (min) with 4% paraformaldehyde and permeabilized with ice-cold methanol for 2 min. The cells were then blocked for 30 min with DMEM containing 10% FCS and incubated for 2 h with a rabbit polyclonal antibody against the neuronal marker GAP43 (1:4000). Cells were washed three times with PBS-BSA (2%) and then incubated for 30 min at room temperature with a biotinylated donkey anti-rabbit Ig (1:300, Amersham), washed three times, and incubated with streptavidin-conjugated Texas Red (1:300, Amersham) for 30 min. After three more washes, the slides were mounted in Permfluor (Baxter) and viewed with a Zeiss fluorescent microscope. The length of the longest neurite for each GAP43-positive neuron was determined using the Biological Detection System image analysis program (Pittsburgh).
# Peptides corresponding to amino acid residues […] of MAG (MAG(343-371)), amino acid residues 363-397 (MAG(363-397)), amino acid residues 394-428 (MAG(394-428)), amino acid residues 422-451 (MAG(422-451)), amino acid residues 442-471 (MAG(442-471)), and amino acid residues 461-498 (MAG(461-498)) were synthesized. Peptides were obtained from SynPep Corp. (Dublin, Calif.). MAG(343-371), MAG(363-397) and MAG(394-428) correspond to amino acid residues from the Ig4 domain of MAG. MAG(422-451), MAG(442-471) and MAG(461-498) corresponds to amino acid residues from the Ig5 domain of MAG. […] Results are shown in FIG. 4 (and are represented as number of neurons with processes longer than 2-times the cell diameter). […] Results are shown in FIG. 5 (and are represented as average neurite length for 180-200 neurons).
# [2] = system: cerebellar neurons; test: Neurite outgrowth on L1-Fc substrate in the presence of soluble MAG-Fc chimeras (FIG. 3); assay type: cell-based; conditions: soluble protein 25 μg/ml, 18 hours, compared to control chimera
# Protocol: FIG. 3 Inhibition of neurite outgrowth from cerebellar neurons by MAG-Fc Derivatives Cerebellar neurons were isolated (Example 1) and plated onto a growth promoting substrate of L1 protein (Example 4). A control MUC-Fc fusion (clear bar), wild-type MAG-Fc (striped bar) and MAG-Fc derivatives having point mutations in MAG Ig-like domains 4 or 5 (grey bars) were constructed (Example 4) and added in soluble form to neurons (25 μg/ml). After 18 hours, cultures were fixed and stained for GAP-43 antigen. Neurite length was measured and the average length was calculated for 180-200 neurons (+/−SEM).
# Individual wells of an eight-chamber tissue culture plastic slide (Lab-Tek, Nuc. Inc.) were incubated with 0.3 nil of 16.6 μg/ml poly-1-lysine in sterile water for at least one hour under sterile conditions. Each well was washed twice with 400 μl of a 0.1M sodium bicarbonate solution, pH 9.6, and then received 0.3 ml of 0.1M sodium bicarbonate solution, pH 9.6, containing 15 μg/ml goat anti-human IgG (Fc-specific) monoclonal antibody (Sigma). The wells were incubated for 2 hours (h) at 37° C., and washed three times with 0.4 ml of ice-cold DMEM. Each well then received 0.3 nil of DMEM containing 40 μg/ml of L1-Fc and was incubated for 2-4 h at 37° C. The welts were washed twice DMEM.
# Cerebellar neurons (post-natal days 2-7) were dissociated by trypsinization as described in Example 1, except that the dissociated neurons were resuspended in 5 ml of SATO medium containing 2% dialyzed FBS. To an individual well coated with a monolayer of L1-Fc as described above, 5.0×10^4 cerebellar neurons were added, followed by addition of one of the mutant MAG-Fc or MUC18-Fc chimeric soluble protein described above at a concentration of 25 μg/ml. Neurons were cultured for 18 hours at 37° C., and then fixed and stained for GAP43 essentially as described in Example 2. Neurite length was measured for 180-200 neurons.
Molecule,inhibition of neurite outgrowth (in words) [2],other results
MAG(442-471): peptide of MAG amino acid residues 442-471 (SEQ ID NO: 16) (VAFELPSRNVTVNETEREFVYSERSGLLLT),–,"effect on the ability of MAG-expressing cells to inhibit neurite outgrowth ([1]; peptide 15 μM, overnight, FIG. 4): strongly attenuated inhibition by MAG; neurite length relative to neurites extended without peptide or with MAG Igd4 peptides ([1]; peptide 15 μM, overnight, neurons on MAG-expressing cells, FIG. 4): at least twice as long"
M462: peptide of MAG amino acid residues 462-486 (SEQ ID NO: 24) (YSERSGLLLTSILTLRGQAQAPPRV),–,attenuation of inhibition of neurite outgrowth by MAG [1]: even more strongly attenuated inhibition by MAG
M433: peptide of MAG amino acid residues 433-457 (SEQ ID NO: 20) (VVKSNPEPSVAFELPSRNVTVNETE),–,attenuation of inhibition of neurite outgrowth by MAG [1]: even more strongly attenuated inhibition by MAG
"MAG(R491E)-Fc: murine MAG-Fc with point mutation R491E, Ig domain 5/TM (protein, UniProt P20917 20-516, looked up, variant R491E, extracellular domain Fc fusion, murine MAG-Fc with point mutation R491E, Ig domain 5/TM) extracellular domain: GHWGAWMPSTISAFEGTCVSIPCRFDFPDELRPAVVHGVWYFNSPYPKNYPPVVFKSRTQVVHESFQGRSRLLGDLGLRNCTLLLSTLSPELGGKYYFRGDLGGYNQYTFSEHSVLDIVNTPNIVVPPEVVAGTEVEVSCMVPDNCPELRPELSWLGHEGLGEPTVLGRLREDEGTWVQVSLLHFVPTREANGHRLGCQAAFPNTTLQFEGYASLDVKYPPVIVEMNSSVEAIEGSHVSLLCGADSNPPPLLTWMRDGMVLREAVAKSLYLDLEEVTPGEDGVYACLAENAYGQDNRTVELSVMYAPWKPTVNGTVVAVEGETVSILCSTQSNPDPILTIFKEKQILATVIYESQLQLELPAVTPEDDGEYWCVAENQYGQRATAFNLSVEFAPIILLESHCAAARDTVQCLCVVKSNPEPSVAFELPSRNVTVNETEREFVYSERSGLLLTSILTIRGQAQAPPRVICTSENLYGTQSLELPFQGAHRLMWAKIGP",none,–
"MAG(L431D)-Fc: murine MAG-Fc with point mutation L431D, Ig domain 5 (protein, listed as Mus sp., Fc fusion) MIFLATLPLFWIMISASRGGHWGAWMPSTISAFEGTCVSIPCRFDFPDELRPAVVHGVWYFNSPYPKNYPPVVFKSRTQVVHESFQGRSRLLGDLGLRNCTLLLSTLSPELGGKYYFRGDLGGYNQYTFSEHSVLDIVNTPNIVVPPEVVAGTEVEVSCMVPDNCPELRPELSWLGHEGLGEPTVLGRLREDEGTWVQVSLLHFVPTREANGHRLGCQAAFPNTTLQFEGYASLDVKYPPVIVEMNSSVEAIEGSHVSLLCGADSNPPPLLTWMRDGMVLREAVAKSLYLDLEEVTPGEDGVYACLAENAYGQDNRTVELSVMYAPWKPTVNGTVVAVEGETVSILCSTQSNPDPILTIFKEKQILATVIYESQLQLELPAVTPEDDGEYWCVAENQYGQRATAFNLSVEFAPIILLESHCAAARDTVQCDCVVKSNPEPSVAFELPSRNVTVNETEREFVYSERSGLLLTSILTIRGQAQAPPRVICTSRNLYGTQSLELPFQGAHRLMWAKIGPVGAVVAFAILIAIVCYITQTRRKKNVTESSSFSGGDNPHVLYSPEFRISGAPDKYESREVSTRDCH",none,–
"MAG(E445K)-Fc: murine MAG-Fc with point mutation E445K, Ig domain 5 (protein, listed as Mus sp., Fc fusion) MIFLATLPLFWIMISASRGGHWGAWMPSTISAFEGTCVSIPCRFDFPDELRPAVVHGVWYFNSPYPKNYPPVVFKSRTQVVHESFQGRSRLLGDLGLRNCTLLLSTLSPELGGKYYFRGDLGGYNQYTFSEHSVLDIVNTPNIVVPPEVVAGTEVEVSCMVPDNCPELRPELSWLGHEGLGEPTVLGRLREDEGTWVQVSLLHFVPTREANGHRLGCQAAFPNTTLQFEGYASLDVKYPPVIVEMNSSVEAIEGSHVSLLCGADSNPPPLLTWMRDGMVLREAVAKSLYLDLEEVTPGEDGVYACLAENAYGQDNRTVELSVMYAPWKPTVNGTVVAVEGETVSILCSTQSNPDPILTIFKEKQILATVIYESQLQLELPAVTPEDDGEYWCVAENQYGQRATAFNLSVEFAPIILLESHCAAARDTVQCLCVVKSNPEPSVAFKLPSRNVTVNETEREFVYSERSGLLLTSILTIRGQAQAPPRVICTSRNLYGTQSLELPFQGAHRLMWAKIGPVGAVVAFAILIAIVCYITQTRRKKNVTESSSFSGGDNPHVLYSPEFRISGAPDKYESREVSTRDCH",none,–
"MAG(R485D)-Fc: murine MAG-Fc with point mutation R485D, Ig domain 5 (protein, listed as Mus sp., Fc fusion) MIFLATLPLFWIMISASRGGHWGAWMPSTISAFEGTCVSIPCRFDFPDELRPAVVHGVWYFNSPYPKNYPPVVFKSRTQVVHESFQGRSRLLGDLGLRNCTLLLSTLSPELGGKYYFRGDLGGYNQYTFSEHSVLDIVNTPNIVVPPEVVAGTEVEVSCMVPDNCPELRPELSWLGHEGLGEPTVLGRLREDEGTWVQVSLLHFVPTREANGHRLGCQAAFPNTTLQFEGYASLDVKYPPVIVEMNSSVEAIEGSHVSLLCGADSNPPPLLTWMRDGMVLREAVAKSLYLDLEEVTPGEDGVYACLAENAYGQDNRTVELSVMYAPWKPTVNGTVVAVEGETVSILCSTQSNPDPILTIFKEKQILATVIYESQLQLELPAVTPEDDGEYWCVAENQYGQRATAFNLSVEFAPIILLESHCAAARDTVQCLCVVKSNPEPSVAFELPSRNVTVNETEREFVYSERSGLLLTSILTIRGQAQAPPDVICTSRNLYGTQSLELPFQGAHRLMWAKIGPVGAVVAFAILIAIVCYITQTRRKKNVTESSSFSGGDNPHVLYSPEFRISGAPDKYESREVSTRDCH",none,–
"MAG(K435E)-Fc: murine MAG-Fc with point mutation K435E, Ig domain 5 (protein, listed as Mus sp., Fc fusion) MIFLATLPLFWIMISASRGGHWGAWMPSTISAFEGTCVSIPCRFDFPDELRPAVVHGVWYFNSPYPKNYPPVVFKSRTQVVHESFQGRSRLLGDLGLRNCTLLLSTLSPELGGKYYFRGDLGGYNQYTFSEHSVLDIVNTPNIVVPPEVVAGTEVEVSCMVPDNCPELRPELSWLGHEGLGEPTVLGRLREDEGTWVQVSLLHFVPTREANGHRLGCQAAFPNTTLQFEGYASLDVKYPPVIVEMNSSVEAIEGSHVSLLCGADSNPPPLLTWMRDGMVLREAVAKSLYLDLEEVTPGEDGVYACLAENAYGQDNRTVELSVMYAPWKPTVNGTVVAVEGETVSILCSTQSNPDPILTIFKEKQILATVIYESQLQLELPAVTPEDDGEYWCVAENQYGQRATAFNLSVEFAPIILLESHCAAARDTVQCLCVVESNPEPSVAFELPSRNVTVNETEREFVYSERSGLLLTSILTIRGQAQAPPRVICTSRNLYGTQSLELPFQGAHRLMWAKIGPVGAVVAFAILIAIVCYITQTRRKKNVTESSSFSGGDNPHVLYSPEFRISGAPDKYESREVSTRDCH",none,–
